To fix the notation:
B1: F1245-5-1 (antibody, V domains shown)
VH: QVQLQQPGAELVKPGASVKLSCKASGYTFISYWMHWVKQRPGQGLEWIGMIHPNSGSTHYNEKFKSKATLTVDKSSSTAYMQLSSLTSEDSAVYYCARGGVTPVAYWGQGTLVTVSA
VL: SIVMTQTPKFLLVSAGDRVTITCKASQSVSNDVAWYQQKPGQSPKLLIYYASNRYTGVPDRFTGSGYGTDFTFTISTVQAEDLAVYFCQQDYSSPWTFGGGTKLEIKR
B2: F1245-6-2 (antibody, V domains shown)
VH: B1 VH with I30T, H59N
VL: B1 VL with D60Y
B3: F1249-24-1 (antibody, V domains shown)
VH: QVQLQQSGAELVRPGVSVKISCKGSGYTFTDYAMHWVKQSHAKSLEWIGVISTYYGDTSYNQKFKGKATMTVDKSSSTAYMELARLTSEDSAIYYCARAEDYDPWFAYWGQGTLVTVSA
VL: DIVLTQSPASLAVSLGQRATISCRASESVDSYGNSFMHWYQQKPGQPPKLLIYRASNLESGIPARFSGSGSRTDFTLTINPVEADDVATYYCQQSDEDPLTFGAGTKLELKR
B4: PEGylated F1232-37-2 antibody (antibody, V domains shown)
VH: VQLQQSGPELVRPGESVKISCKGSGYTFTDYAIHWVKLSHAKSLEWIGVISIYYDDTNYNQKFKGKATMTVDKSSSTAYLELARLTSEDSAIYYCARRRDSSGPYAMDYWGQGTSVTVSS
VL: B3 VL with D96N, L100Y, A104G, L110I
modifications: linear PEG of 20 KD coupled through a succinimide group; sites not stated
notes: Whole mouse F1232-37-2 reacted with PEG at antibody:PEG 1:10 (molar) and purified on Q Sepharose HP; also called F1232-37-2 PEGylated antibody
B5: F1232-7-1 (antibody, V domains shown)
VH: B4 VH with L80M
VL: B3 VL with D96N, L100Y, A104G, L110I
notes: Mouse hybridoma monoclonal antibody; also called F1232-7-1 antibody
B6: F1232-18-3 (antibody, V domains shown)
VH: VMLVESGGGLVKPGGSLKLSCAASGFTFSSYAMSWVRQTPEKRLEWVATISSGGSYTYYPDSVKGRFTISRDNAKNTLYLQMSSLRSADTAMYYCARDYGYFDYWGQGTTLTVSS
VL: B3 VL with S31N, N34I, I52F, A84T, D96N, E97T, L100R, A104G, L110I
notes: Mouse hybridoma monoclonal antibody
B7: F1232-24-1 (antibody, V domains shown)
VH: VQLQQSGAELVRPGVSVKISCKGSGYTFTDYAMHWVKQSHAKSLEWIGVISTYYGDASYNQKFKGKATMTVDKSSSTAYMELARLTSEDSAIYYCARSYDYDPWFAYWGQGTLVTVSA
VL: B3 VL with S31N, N34I, A84T, D96N, E97K
notes: as for B6
B8: F1201-18 (antibody, V domains shown)
VH: VQLVESGGGLVKPGGSLKLSCAASGFTFSSYAMSWVRQTPEKRLEWVAIISSGGSYTYYPDSVKGRFTISRDNAKNTLYLHMSSLRSEDTAMYYCARQGGGYFDYWGQGTTLTVSS
VL: B3 VL with L58V, D96N, L100P
notes: as for B6
B9: F1232-17-1 (antibody, V domains shown)
VH: VQLVESGGDLVKPGGSLKLSCAASGFTFSSYGMSWVRQTPDKRLEWVATISSGGSYTYYPDNVKGRFTISRDNAKNTLYLQMSSLNSEDTAMYYCARQVYYFGSCDYWGQGTTLTVSS
VL: B3 VL with S31N, N34I, A84T, D96N, E97K, L100W, A104G, L110I
notes: as for B6

The record followed here is patent publication US20090041783A1 (MOCHIDA PHARMACEUTICAL, published 2009).

Substitutions are numbered along the chain they refer to. Some results are limits rather than exact numbers.

What is called EC50 (read off the curve) is the midpoint of the concentration-response curve.

T2 sequence (chain, as listed by the source mutant limits assumed): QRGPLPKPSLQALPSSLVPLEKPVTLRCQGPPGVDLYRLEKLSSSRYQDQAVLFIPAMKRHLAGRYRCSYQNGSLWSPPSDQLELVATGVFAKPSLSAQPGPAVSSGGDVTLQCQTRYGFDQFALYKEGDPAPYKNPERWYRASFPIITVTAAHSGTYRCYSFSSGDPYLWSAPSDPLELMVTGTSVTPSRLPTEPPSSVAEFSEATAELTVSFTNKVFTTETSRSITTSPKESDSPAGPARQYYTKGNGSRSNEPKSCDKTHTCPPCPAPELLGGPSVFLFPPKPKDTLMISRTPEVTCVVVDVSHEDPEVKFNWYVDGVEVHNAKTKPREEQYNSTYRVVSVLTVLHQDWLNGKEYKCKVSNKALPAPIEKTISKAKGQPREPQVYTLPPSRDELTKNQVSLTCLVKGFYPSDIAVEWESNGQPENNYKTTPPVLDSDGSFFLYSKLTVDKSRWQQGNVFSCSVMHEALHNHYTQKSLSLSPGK

For one assay, the target named is T1, human GPVI extracellular region-human Fc fusion protein (hGPVI-hFc) (human).
T1 construct: Expressed in COS-1, purified on Protein A; also called GPVI-HHH-hFc; hGPVIHHH-hFc
T1 sequence (chain, as listed by the source limits assumed): as the sequence (chain, as listed by the source mutant limits assumed) above, with R2S, H61S, P78L, G166R, M181V, S442P counted along it
The assay is described as follows: ELISA on immobilised hGPVI-hFc; + A450 0.5-1.0, ++ 1.0-2.0, +++ more than 2.0. The protocol: The hGPVI-hFc prepared by EXAMPLE 1B was diluted with D-PBS to 2 μg/mL and added to immunoplate (Maxisorp NUNC) at 50 μL/well. After incubation at 37° C. for one hour, the well was washed five times with ion-exchanged water, and D-PBS (pH7.4) containing 2% StabilGuard (Surmodics) was added to each well in 100 μL for blocking. Next, culture supernatant was added to each well and incubated at 37° C. for one hour. After incubation, the well was washed three times with the saline containing 0.05% Tween20. Peroxidase-labeled anti-mouse immunoglobulin antibody (DAKO, P260) was 1000-fold diluted with D-PBS containing 10% rabbit serum and added to each well at 50 μL. After incubation at 37° C. for one hour, washing in a similar manner was performed and TMB solution (BioFix) was added to each well. After ten minutes at room temperature, the reaction was terminated with 0.5 M sulfuric acid solution. Subsequently, absorbance at 450 nm was measured with the plate spectrophotometer (Multiscan JX, Dainippon Pharmaceutical). As a result, the cell whose culture supernatant reacted to hGPVI-hFc was selected and a cloning with limiting dilution method (“The Introduction to Monoclonal Antibody Experimental Procedure” written by Tamie Andoh and Takeshi Chiba (Kodansha, p 83)) was performed. Eight days later, screening was done in a similar manner and the antibody which reacts to hGPVI-hFc was selected.
(§1) To analyze a property for each antibody obtained in EXAMPLE 13, binding to human GPVI-hFc, competition with F1232-37-2 described in EXAMPLE 4 and specificity for L9 loop were investigated. That is, as for the binding to human GPVI, according to the method of EXAMPLE 2, a binding activity to immobilized antigen was measured. For the binding activity, the range of absorbance from 0.5 to 1.0 is represented by “+”, from 1.0 to 2.0 by “++”, the range more than 2.0 by “+++”. The competitive test with F1232-37-2 was performed as follows. That is, according to the method by Nakane et al. (J. Histochem. Cytochem., 22, 1084, 1974), peroxidase (TOYOBO)-labeled F1232-37-2 antibody was prepared and an antibody concentration was calculated from the amount of the antibody used.
On to B1, for which the absorbance lay within 1 to 2 od.
Still for that read-out and setting: as for B2, the figure is 1 to 2 od.
The same measure, in the same setting: as for B3, the figure is greater than 2 od.

In another assay the target is T1, human GPVI extracellular region-human …. The assay is described as follows: ELISA on immobilised hGPVI-hFc, peroxidase-labelled anti-mouse immunoglobulin antibody. The protocol: Binding activity to the antigen was detected by ELISA. To each well of immunoplate immobilized with hGPVI-hFc (prepared by the method described in EXAMPLE 2 and the like), F1232-37-2 antibody and F1232-37-2 PEGylated antibody, wherein both antibodies had been adjusted to the same concentration, was added and the plate was incubated at 37° C. for one hour. The well was washed with saline containing 0.05% Tween20. Then 50 μL of peroxidase-labeled anti-mouse immunoglobulin antibody (DAKO, P260), which had been diluted by 1000-fold with 10% rabbit serum-containing D-PBS, was added to each well. After incubation at 37° C. for one hour, coloring reaction by the TMB substrate was done to measure an absorbance at 450 nm with plate spectro-photometer (Molecular Devices, Wako). As a result, it was confirmed that both F1232-37-2 antibody and PEGylated F1232-37-2 antibody have almost equivalent binding activity.
For B4, the “EC50 (read off the curve)” value is roughly 0.02 µg/mL.

The next assay has the same target. The experiment in a line: competition ELISA on hGPVI-hFc plate; competitor: peroxidase-labelled F1232-37-2; +++ more than 50%, ++ 30-50%, + 10-30% inhibition. The protocol: as §1
Next, by using the peroxidase-labeled antibody, the competitive test for a variety of purified antibody was performed. That is, 25 μL of the above labeled antibody and 25 μL of each purified antibody were added to well of hGP-hFc-immobilized plate. After incubation at 37° C. for one hour, the well was washed five times with the saline containing 0.05% Tween20, and the reaction mixture was developed with TMB solution (BioFix). After incubation at room temperature for 10 minutes, the reaction was terminated with 0.5 M sulfuric acid solution and an absorbance at 450 nm was measured with the plate spectrophotometer (Multi-Scan JX, Dainippon Pharmaceutical).
With B1, the percent inhibition lay in the range of 30 to 50%.
Same read-out and setting: as for B2, the figure is greater than 50%.
On the same count and under the same terms, as for B3, the figure is greater than 50%.

The target is the same in another assay. The experiment in a line: SPR (BIACORE3000), GPVI-Fc on CM5 chip, antibody 1.25-40 nM as analyte, bivalent analyte fit. The protocol: (§2) Dissociation constant for the anti-GPVI monoclonal antibody prepared in EXAMPLE 2 was measured using protein interaction analyzer BIACORE3000 (BIACORE). That is, to sensor chip, CM5 chip (BIACORE), GPVI substitution mutant (hGPVIHHH-hFc and FFH-hFc) that is prepared in EXAMPLE 1 was linked according to the manual. Then each antibody was diluted with HBS-EP buffer solution (BIACORE) to prepare a series of diluted solution from 1.25 to 40 nM, and analyzed with BIACORE3000. Every each antibody bound chip, the chip was regenerated with glycine buffer solution at pH1.5. The obtained result was analyzed with Bivalent analyte, the evaluation software (BIACORE) to calculate dissociation constant. It was shown that each anti-GPVI monoclonal antibody has a sufficient affinity to GPVI-HHH-hFc.
Background: Surface plasmon resonance follows binding to a sensor surface in real time, without labels.
The molecule B5 came in with a Kd of 34.7 nM.
Same read-out and setting: as for B6, the figure is 1.65 nM; as for B7, 0.25 nM.
B8 returned a Kd of 1.16 nM.
On the same count and under the same terms, as for B9, the figure is 0.522 nM.

Another assay addresses T2, cynomolgus monkey D1D2-human D3 chimeric GPVI-human Fc fusion protein (GPVI-FFH-hFc) (cynomolgus monkey (D1, D2) and human …).
T2 construct: also called Monkey GPVI
Described as above. The protocol:
as §2
B5 showed a Kd of 343 nM.
On the same count and under the same terms, as for B6, the figure is 365 nM.
The same measure, in the same setting: as for B7, the figure is 0.71 nM; as for B8, 0.619 nM; as for B9, 0.177 nM.

Another assay deals with T1, human GPVI extracellular region-human …. The experiment in a line: ELISA, collagen on plate, hGPVI-hFc plus antibody; +++ more than 50%, ++ 30-50%, + 10-30% inhibition. (In general: An ELISA detects its analyte on a solid surface through an enzyme-linked reagent.)
On to B1, for which the percent inhibition lay within 10 to 30%.
On the same count and under the same terms, then B2, with 10 to 30%; and B3, with 10 to 30%.

The target is the same in the next assay. The assay is described as follows: ELISA of hybridoma culture supernatant on coated hGPVI-hFc (selection criterion). The protocol: Next, culture supernatant was added to each well and incubated at 37° C. for one hour. After incubation, the well was washed three times with the saline containing 0.05% Tween20. Peroxidase-labeled anti-mouse immunoglobulin antibody (DAKO, P260) was 1000-fold diluted with D-PBS containing 10% rabbit serum and added to each well at 50 μL. After incubation at 37° C. for one hour, washing in a similar manner was performed and TMB solution (BioFix) was added to each well. After ten minutes at room temperature, the reaction was terminated with 0.5 M sulfuric acid solution. Subsequently, absorbance at 450 nm was measured with the plate spectrophotometer (Multiscan JX, Dainippon Pharmaceutical). As a result, the cell whose culture supernatant reacted to hGPVI-hFc was selected and a cloning with limiting dilution method (“The Introduction to Monoclonal Antibody Experimental Procedure” written by Tamie Andoh and Takeshi Chiba (Kodansha, p 83)) was performed. Eight days later, screening was done in a similar manner and the antibody which reacts to hGPVI-hFc was selected.
After one week, hybridoma, which produces a desired antibody was screened using the binding property to hGPVI-hFc and hGPVI-mL9-hFc prepared in EXAMPLE 7 as an index. That is, the purified hGPVI-hFc or hGPVI-mL9-hFc, which was prepared in EXAMPLE 1, was diluted with D-PBS (pH7.4) to 1 μg/mL. And 50 μL/well of the solution was added to make hGPVI-hFc or hGPVI-mL9-hFc-coated plate using the same method as that of EXAMPLE 2. Next, a culture supernatant was added to each well, and after incubation at room temperature for one hour, by the same method as that of EXAMPLE 2, using peroxidase-labeled anti-mouse immunoglobulin antibody (DAKO, P260) a reaction was performed to measure an absorbance. As a result, the cell producing an antibody that binds to the purified hGPVI-hFc (absorbance: equal to or more than one), but not hGPVI-mL9-hFc (abdorbance: equal to or less than 0.5) was selected and cloned by the method described in EXAMPLE 2. Eight through ten days later, a screening was done as with the similar way to obtain a hybridoma producing an L9-specific mouse anti-human GPVI antibody. As with EXAMPLE 2B (3), the obtained hybridoma was cultured and a monoclonal antibody was purified. The sub-type of each antibody was determined using IsoStrip Mouse Monoclonal antibody Isotyping Kit (Roche).
In the case of B1, the absorbance was no less than 1 absorbance.
Same read-out and setting: then B2, with no less than 1 absorbance; and B3, with no less than 1 absorbance.
